Assay [1] concerns the target T1, RbAp48 (full length, residues 1-425), purified recombinant (UniProt Q09028 1-425). The assay is described as follows: ITC. For orientation: ITC needs no label: the signal is the heat of the interaction.
The target of assay [2] is T1, RbAp48 (full length, residues 1-425), …. In words: SPR.

The record followed here is paper PMC3020727 (The Journal of Biological Chemistry, 2010).

No end group written: not given here. *: point of attachment. Biotin = O=C1N[C@H]2[C@H](CS[C@H]2CCCCC(=O)*)N1

T1 sequence (Q09028 whole entry, the tested form may be a part): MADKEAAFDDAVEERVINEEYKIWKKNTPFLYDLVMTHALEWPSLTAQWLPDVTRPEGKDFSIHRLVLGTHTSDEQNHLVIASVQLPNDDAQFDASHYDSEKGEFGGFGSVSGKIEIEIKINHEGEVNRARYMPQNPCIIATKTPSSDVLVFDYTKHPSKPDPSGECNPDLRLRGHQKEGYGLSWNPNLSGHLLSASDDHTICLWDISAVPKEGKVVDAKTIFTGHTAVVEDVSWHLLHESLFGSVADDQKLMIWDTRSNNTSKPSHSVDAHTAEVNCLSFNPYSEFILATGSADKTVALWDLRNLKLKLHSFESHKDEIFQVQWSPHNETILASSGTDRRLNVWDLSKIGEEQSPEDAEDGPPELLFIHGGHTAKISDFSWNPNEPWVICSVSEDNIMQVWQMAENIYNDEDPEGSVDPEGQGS

B1: FOG-1-(1-12) peptide (peptide)
peptide: MSRRKQSNPRQI
Regarding B1, the Ka in assay [1] turned out to be 1.54e+06 M⁻¹.

B2: biotinylated FOG-1-(1-15) peptide (peptide)
peptide: Biotin-MSRRKQSNPRQIKRS
Turning to B2, the Ka in assay [2] worked out at 1.36e+06 M⁻¹.
